In patent publication US20220332804A1 (CSL INNOVATION, published 2022):
Residue numbers refer to the chain shown, from its start.

Legend:
Assay in all cases: SPR, mAb captured, C2 mutant analyte;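 further: Anti-C2 mAbs captured on goat anti-human IgG Biacore CM5 chips, alanine or serine C2 surface mutants flowed over at 37 °C, double-referenced sensorgrams fitted to a 1:1 binding model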
human C2 D269A = molecular target: T1, human C2 D269A (human, UniProt P06681 21-752)
T1 sequence: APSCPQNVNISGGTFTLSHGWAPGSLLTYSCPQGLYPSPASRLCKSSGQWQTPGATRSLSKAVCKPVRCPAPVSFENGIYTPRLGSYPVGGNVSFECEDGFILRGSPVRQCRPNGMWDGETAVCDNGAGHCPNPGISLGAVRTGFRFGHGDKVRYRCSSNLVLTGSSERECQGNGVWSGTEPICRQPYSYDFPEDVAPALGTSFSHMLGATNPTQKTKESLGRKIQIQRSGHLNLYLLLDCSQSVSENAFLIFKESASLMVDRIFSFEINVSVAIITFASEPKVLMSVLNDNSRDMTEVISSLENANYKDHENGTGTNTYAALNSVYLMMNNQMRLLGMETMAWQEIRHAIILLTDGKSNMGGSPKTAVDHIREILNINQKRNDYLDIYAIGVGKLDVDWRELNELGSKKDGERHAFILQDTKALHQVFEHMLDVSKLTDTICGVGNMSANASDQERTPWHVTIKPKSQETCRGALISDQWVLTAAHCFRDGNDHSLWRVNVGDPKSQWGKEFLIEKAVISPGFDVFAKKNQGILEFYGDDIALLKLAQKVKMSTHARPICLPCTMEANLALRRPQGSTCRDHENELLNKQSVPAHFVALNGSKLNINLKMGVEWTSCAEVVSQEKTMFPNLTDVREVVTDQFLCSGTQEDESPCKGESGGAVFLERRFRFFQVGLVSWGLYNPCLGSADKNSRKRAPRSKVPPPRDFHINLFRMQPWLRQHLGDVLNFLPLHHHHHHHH

human C2 K274A = molecular target: T2, human C2 K274A (human, UniProt P06681 21-752)
T2 sequence: T1 sequence with A249D, K254A

human C2 R493A = molecular target: T3, human C2 R493A (human, UniProt P06681 21-752)
T3 sequence: T1 sequence with A249D, R473A

human C2 G427A = molecular target: T4, human C2 G427A (human, UniProt P06681 21-752)
T4 sequence: T1 sequence with A249D, G407A

Kd (human C2 D269A): 17.2 nM
binding result (human C2 K274A): no binding
Kd (human C2 R493A): 25.3 nM
Kd (human C2 G427A): 8.8 nM
B1: RF16-214 (antibody, V domains shown)
VH: EVQLLESGGGLVQPGGSLRLSCAASGFTFSWYQMMWVRQAPGKGLEWVSRIYPSGGGTAYADSVKGRFTISRDNSKNTLYLQMNSLRAEDTAVYYCARDAGYGDNWGQGTLVTVSS
VL: QSALTQPPSVSVSPGQTASITCSGDKLGEKYASWYQQKAGQSPVMVIYQDRKRPSGIPERFSGSNSGNTATLTISGTQAMDEADYYCQAWDTRAVVFGGGTKLTVLG
